This series deals with the molecule itself. The experiment in a line: SEC; Superose 6 10/300 increase GL equilibrated in detergent-free buffer, after elution in 0.005% MNG/GDN/CHS. A general note: Size exclusion chromatography separates by hydrodynamic size, large species first.

The record followed here is article PMC12394075, “Domain coupling in activation of a family C GPCR” (Nature Chemical Biology, 2024).

B1: full-length mGluR2 (FLAG-tagged, purified in detergent micelles) (receptor, rat, UniProt P31421 19-872, looked up)
chain: EGPAKKVLTLEGDLVLGGLFPVHQKGGPAEECGPVNEHRGIQRLEAMLFALDRINRDPHLLPGVRLGAHILDSCSKDTHALEQALDFVRASLSRGADGSRHICPDGSYATHSDAPTAVTGVIGGSYSDVSIQVANLLRLFQIPQISYASTSAKLSDKSRYDYFARTVPPDFFQAKAMAEILRFFNWTYVSTVASEGDYGETGIEAFELEARARNICVATSEKVGRAMSRAAFEGVVRALLQKPSARVAVLFTRSEDARELLAATQRLNASFTWVASDGWGALESVVAGSERAAEGAITIELASYPISDFASYFQSLDPWNNSRNPWFREFWEERFHCSFRQRDCAAHSLRAVPFEQESKIMFVVNAVYAMAHALHNMHRALCPNTTHLCDAMRPVNGRRLYKDFVLNVKFDAPFRPADTDDEVRFDRFGDGIGRYNIFTYLRAGSGRYRYQKVGYWAEGLTLDTSFIPWASPSAGPLPASRCSEPCLQNEVKSVQPGEVCCWLCIPCQPYEYRLDEFTCADCGLGYWPNASLTGCFELPQEYIRWGDAWAVGPVTIACLGALATLFVLGVFVRHNATPVVKASGRELCYILLGGVFLCYCMTFVFIAKPSTAVCTLRRLGLGTAFSVCYSALLTKTNRIARIFGGAREGAQRPRFISPASQVAICLALISGQLLIVAAWLVVEAPGTGKETAPERREVVTLRCNHRDASMLGSLAYNVLLIALCTLYAFKTRKCPENFNEAKFIGFTMYTTCIIWLAFLPIFYVTSSDYRVQTTTMCVSVSLSGSVVLGCLFAPKLHIILFQPQKNVVSHRAPTSRFGSAAPRASANLGQGSGSQFVPTVCNGREVVDSTTSSL
notes: also called full-length mGluR2 construct; full-length receptor
Turning to B1, the binding result was “binds”.
